Laboratory results taken from patent publication US20180080926A1.
Like-named read-outs stand apart in the source and are kept apart here.

What was measured:
mitochondrial mitofusins [1] = experiment: cell-based or functional assay
mitochondrial mitofusins [2] = experiment: cell-based or functional assay; remark: listed apart in the source

TAT-367-384Gly (peptide)
EC50 of mitochondrial elongation (enhanced fusion), mitochondrial aspect ratio in MEFs (mitochondrial mitofusins [1]): 280 nM

TAT-398-418Gly (peptide)
EC50 of mitochondrial shortening (suppressed fusion), mitochondrial aspect ratio in MEFs (mitochondrial mitofusins [1]): 250 nM

GIMDSLHMAARGGYGRKKRRQRRR [GoFuse-C fusion construct]
EC50 of mitochondrial elongation (enhanced fusion), mitochondrial aspect ratio in MEFs (mitochondrial mitofusins [2]): 389 nM

GELLAQDYKLRGGYGRKKRRQRRR [TetherX-C fusion construct]
EC50 of mitochondrial shortening (suppressed fusion), mitochondrial aspect ratio in MEFs (mitochondrial mitofusins [2]): 171 nM
